Test results reported in paper PMC4263437.

System: O=C(Cc1cccs1)N[C@@H]1C(=O)N2C(C(=O)O)=C(/C=C/c3ccc([N+](=O)[O-])cc3[N+](=O)[O-])CS[C@H]12
Experiment: purified protein
Type: biochemical, Acinetobacter baumannii

ADC-7 β-lactamase (Acinetobacter-derived cephalosporinase) (Acinetobacter baumannii)
Km: 21.2 µM
